Paper PMC9638933
Positions count from the first letter of the chain named. Numbers in names are those of the source.

B1: 40 bp dsDNA (dsDNA)
DNA 1: CAGGGTAAGTGTGGAGGTGTAGGGAAGGGAATGTTGTCTG
DNA 2: CAGACAACATTCCCTTCCCTACACCTCCACACTTACCCTG
B2: Mycobacterium tuberculosis Ku L251A (natural protein)
chain: MRAIWTGSIAFGLVNVPVKVYSATADHDIRFHQVHAKDNGRIRYKRVCEACGEVVDYRDLARAYESGDGQMVAITDDDIASLPEERSREIEVLEFVPAADVDPMMFDRSYFLEPDSKSSKSYVLLAKTLAETDRMAIVHFTLRNKTRLAALRVKDFGKREVMMVHTLLWPDEIRDPDFPVLDQKVEIKPAELKMAGQVVDSMADDFNPDRYHDTYQEQLQELIDTKLEGGQAFTAEDQPRLLDEPEDVSDALAKLEASVKARSKANSNVPTPP
B3: Ku D250A (M. tuberculosis) (natural protein)
chain: B2 chain with D250A, A251L
modifications: biotinylated with NHS-LC-Biotin for BLI only
B4: Ku S258A (M. tuberculosis) (natural protein)
chain: B2 chain with A251L, S258A
modifications: biotinylated with NHS-LC-Biotin for BLI only
B5: Mycobacterium tuberculosis Ku D250A (natural protein)
chain: B2 chain with D250A, A251L
B6: wildtype Ku (KuWT), Mycobacterium tuberculosis (natural protein)
chain: B2 chain with A251L
modifications: biotinylated at multiple sites with NHS-LC-Biotin for BLI only (sites listed in Supplementary Table S3)
notes: The His tag is TEV-cleavable; Homodimer by SEC-MALS
B7: Ku D247A (M. tuberculosis) (natural protein)
chain: B2 chain with D247A, A251L
modifications: biotinylated with NHS-LC-Biotin for BLI only
B8: Ku R262A (M. tuberculosis) (natural protein)
chain: B2 chain with A251L, R262A
modifications: biotinylated with NHS-LC-Biotin for BLI only
B9: Ku L251A (M. tuberculosis) (natural protein)
chain: B2 chain
modifications: biotinylated with NHS-LC-Biotin for BLI only
B10: Mycobacterium tuberculosis Ku S258A (natural protein)
chain: B2 chain with A251L, S258A
B11: Mycobacterium tuberculosis Ku R262A (natural protein)
chain: B2 chain with A251L, R262A
B12: Mycobacterium tuberculosis Ku D247A (natural protein)
chain: B2 chain with D247A, A251L
notes: The theoretical MW of 33.7 kDa equals that of KuWT

Assays:
[1] = target: Mycobacterium tuberculosis Kucore (entire C-terminus removed) (M. tuberculosis) (UniProt P9WKD9); assay: BLI; biotinylated Ku protein (25 ug/ml) loaded on streptavidin biosensors as ligand; 12.5 ug/ml LIG or POL as analyte; 37 C, 1000 rpm; 1x kinetics buffer (0.1% BSA, 0.02% Tween-20, 0.05% sodium azide in PBS); association 300 s, dissociation 300 s; grouped global fit; n = 4 technical replicates
[2] = target: Mycobacterium tuberculosis Kumin (extended C-terminus removed) (M. tuberculosis) (UniProt P9WKD9); assay: as above
[3] = target: wildtype Ku (KuWT), Mycobacterium tuberculosis (M. tuberculosis) (UniProt P9WKD9); assay: BLI; Octet RED96, 37°C, 1000 rpm; biotinylated Ku (25 ug/ml) loaded on streptavidin biosensors; LigD, LIG or POL as analyte (12.5 ug/ml), 300 s association, 300 s dissociation; 1x kinetics buffer (0.1% BSA, 0.02% Tween-20, 0.05% sodium azide in PBS); grouped global fit
Ku D250A = target: T1, Ku D250A (Mycobacterium tuberculosis, UniProt P9WKD9 1-273, D250A); assay: EMSA; 5 mM Mg2+; details: protein: recombinant; tags: His (Ni-NTA purified; pMCSG7); chain copies: 2; label: 5' 6-FAM on strand 1; blunt
T1 sequence: B2 chain with D250A, A251L

Ku L251A = target: T2, Ku L251A (Mycobacterium tuberculosis, UniProt P9WKD9 1-273, L251A); assay: EMSA; 5 mM Mg2+; details: protein: recombinant; tags: His (Ni-NTA purified; pMCSG7); chain copies: 2; label: 5' 6-FAM on strand 1; blunt
T2 sequence: B2 chain

Ku R262A = target: T3, Ku R262A (Mycobacterium tuberculosis, UniProt P9WKD9 1-273, R262A); assay: EMSA; 5 mM Mg2+; details: protein: recombinant; tags: His (Ni-NTA purified; pMCSG7); chain copies: 2; label: 5' 6-FAM on strand 1; blunt
T3 sequence: B2 chain with A251L, R262A

Ku D247A = target: T4, Ku D247A (Mycobacterium tuberculosis, UniProt P9WKD9 1-273, D247A); assay: EMSA; 5 mM Mg2+; details: protein: recombinant; tags: His (Ni-NTA purified; pMCSG7); chain copies: 2; label: 5' 6-FAM on strand 1; blunt
T4 sequence: B2 chain with D247A, A251L

Ku S258A = target: T5, Ku S258A (Mycobacterium tuberculosis, UniProt P9WKD9 1-273, S258A); assay: EMSA; 5 mM Mg2+; details: protein: recombinant; tags: His (Ni-NTA purified; pMCSG7); chain copies: 2; label: 5' 6-FAM on strand 1; blunt
T5 sequence: B2 chain with A251L, S258A

[4] = target: the molecule itself; assay: SEC-MALS; 50 uM protein; 50 mM HEPES pH 8.0, 1 mM EDTA, 200 mM NaCl; Superdex 200 Increase 10/300 GL
[5] = target: the molecule itself; assay: SEC-MALS; 50 uM protein in 50 mM HEPES pH 8.0, 1 mM EDTA, 200 mM NaCl; Superdex 200 Increase 10/300 GL; MiniDAWN and Optilab
[6] = target: T6, LigD (wildtype), Mycobacterium tuberculosis (M. tuberculosis, UniProt P9WNV3 1-759); assay: BLI; Octet RED96, 37°C, 1000 rpm; biotinylated Ku (25 ug/ml) loaded on streptavidin biosensors; LigD, LIG or POL as analyte (12.5 ug/ml), 300 s association, 300 s dissociation; 1x kinetics buffer (0.1% BSA, 0.02% Tween-20, 0.05% sodium azide in PBS); grouped global fit; details: both partners purified
T6 construct: The His tag is TEV-cleavable; also called wildtype LigD
T6 sequence (P9WNV3 whole entry): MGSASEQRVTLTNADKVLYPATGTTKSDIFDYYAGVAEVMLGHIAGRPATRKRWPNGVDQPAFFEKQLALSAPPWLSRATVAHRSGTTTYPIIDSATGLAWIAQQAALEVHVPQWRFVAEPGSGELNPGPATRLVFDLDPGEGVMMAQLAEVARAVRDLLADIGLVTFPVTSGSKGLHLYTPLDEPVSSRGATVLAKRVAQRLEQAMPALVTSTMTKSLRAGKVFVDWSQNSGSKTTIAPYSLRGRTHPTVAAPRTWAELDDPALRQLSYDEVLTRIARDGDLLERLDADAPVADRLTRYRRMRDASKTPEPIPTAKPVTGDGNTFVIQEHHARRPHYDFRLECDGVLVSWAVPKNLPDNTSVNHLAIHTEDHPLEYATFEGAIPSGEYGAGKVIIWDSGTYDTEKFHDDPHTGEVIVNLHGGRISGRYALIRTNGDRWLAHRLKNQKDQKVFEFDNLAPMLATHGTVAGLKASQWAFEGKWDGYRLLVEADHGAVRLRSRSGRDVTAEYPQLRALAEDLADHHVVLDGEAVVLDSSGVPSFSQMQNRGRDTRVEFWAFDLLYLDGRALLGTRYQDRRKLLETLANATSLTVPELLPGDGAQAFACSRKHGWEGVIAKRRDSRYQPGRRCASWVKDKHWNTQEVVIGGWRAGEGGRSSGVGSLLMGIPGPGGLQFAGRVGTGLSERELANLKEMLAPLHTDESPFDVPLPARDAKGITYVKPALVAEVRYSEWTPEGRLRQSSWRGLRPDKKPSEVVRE

Row | Molecule | stoichiometry N [4] | stoichiometry N [5] | Kd [6] | other results
1 | ligase domain of Mycobacterium tuberculosis LigD (domain or fragment) | – | – | – | Kd [1]: 274 nM; Kd [2]: 571 nM
2 | LigD polymerase domain (POL), Mycobacterium tuberculosis (domain or fragment) | – | – | – | Kd [3]: 52.7 nM
3 | LigD ligase domain (LIG), Mycobacterium tuberculosis (domain or fragment) | – | – | – | Kd [3]: 81.4 nM
4 | polymerase domain of Mycobacterium tuberculosis LigD (domain or fragment) | – | – | – | Kd [1]: 291 nM; Kd [2]: 774 nM
5 | B1 | – | – | – | Kd (Ku D250A): 140 ± 10 nM; Kd (Ku L251A): 1300 ± 190 nM; Kd (Ku R262A): 140 ± 10 nM; Kd (Ku D247A): 160 ± 10 nM; Kd (Ku S258A): 1340 ± 290 nM
6 | B2 | 2 | – | – | –
7 | B3 | – | 2 | 219 nM | –
8 | B4 | – | 2 | 258 nM | –
9 | B5 | 2 | – | – | –
10 | B6 | – | 2 | 196 nM | –
11 | B7 | – | 2 | 189 nM | –
12 | B8 | – | 2 | 125 nM | –
13 | B9 | – | 2 | 134 nM | –
14 | B10 | 2 | – | – | –
15 | B11 | 2 | – | – | –
16 | B12 | 2 | – | – | –
